# According to US20030012792:
# Target: alpha-1 antichymotrypsin (ACT, Sigma Chemical Co.) (UniProt P01011)
# Sequence (P01011 24-423): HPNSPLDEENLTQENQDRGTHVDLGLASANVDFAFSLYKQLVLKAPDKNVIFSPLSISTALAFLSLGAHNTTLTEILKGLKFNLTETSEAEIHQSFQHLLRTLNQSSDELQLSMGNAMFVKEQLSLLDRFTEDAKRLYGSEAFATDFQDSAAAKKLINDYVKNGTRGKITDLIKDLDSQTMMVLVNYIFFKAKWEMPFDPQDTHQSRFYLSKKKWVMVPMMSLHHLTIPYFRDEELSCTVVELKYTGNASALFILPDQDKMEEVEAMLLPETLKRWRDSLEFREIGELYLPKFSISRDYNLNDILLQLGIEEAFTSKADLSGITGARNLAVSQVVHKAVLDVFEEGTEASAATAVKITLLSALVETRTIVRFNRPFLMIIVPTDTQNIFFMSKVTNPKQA
substance,measurement,value
"Human Prostate-Specific Antigen (purified human PSA, Vitro Diagnostics)","proteolytic (serine protease) activity of PSA on synthetic substrate S-2586, absorbance at 405 nm",preincubation of PSA with ACT blocked both serine protease activity of purified PSA (FIG. 11)
